Test results published in paper PMC9589210.

How the values were obtained:
[1] = biological target: microtubules polymerised from bovine brain tubulin (bovine (endogenous in brain)) (UniProt Q6B856); experiment: TIRF microscopy (fluorescence intensity of labeled Tau on microtubules); occupancy: 750 nM Alexa-647 Tau on dynamic microtubules grown from surface-held GMPCPP seeds with 5 μM tubulin, 1 mM GTP, TIRF assay buffer (BRB80, 10 mM DTT, oxygen scavenger), 37 °C; normalized average fluorescence intensity, seeds excluded
[2] = biological target: microtubules polymerised from bovine brain tubulin (bovine (endogenous in brain)) (UniProt Q6B856)
[3] = biological target: microtubules polymerised from bovine brain tubulin (bovine (endogenous in brain)) (UniProt Q6B856); experiment: TIRF microscopy (single-molecule imaging); 750 nM unlabeled Tau spiked with 300 pM Alexa-647-labeled Tau on dynamic microtubules (5 μM tubulin, 10% Alexa-488) grown from surface-held GMPCPP seeds, TIRF assay buffer, 37 °C, 10 frames/s
[4] = biological target: R5L-Tau, 3RS isoform, Alexa 488-labeled (construct for FCS) (UniProt P10636); experiment: fluorescence correlation spectroscopy (FCS); ~20 nM Alexa 488-labeled Tau, tubulin titrated 0.5-10 μM, nonpolymerizing conditions, BRB80 (80 mM Pipes, 1 mM EGTA, 1 mM MgCl2, pH 6.9), 20 °C, 5 min incubation; diffusion times normalised to that without tubulin and fit to a binding model
[5] = biological target: WT-Tau, 3RS isoform, Alexa 488-labeled (construct for FCS) (UniProt P10636); experiment: as above

Substance	relative normalized fluorescence intensity of Tau on dynamic microtubules [1]	microtubule growth rate at the minus end, dynamic microtubules with 750 nM unlabeled Tau (TIRF) [2] [μm/min]	microtubule growth rate at the plus end, dynamic microtubules with 750 nM unlabeled Tau (TIRF) [2] [μm/min]	microtubule shrinkage rate at the minus end, dynamic microtubules with 750 nM unlabeled Tau (TIRF) [2] [μm/min]	microtubule shrinkage rate at the plus end, dynamic microtubules with 750 nM unlabeled Tau (TIRF) [2] [μm/min]	dwell time of diffusive events [3] [s]	dwell time of static events [3] [s]	percent static binding [3] [%]	increase of the normalized diffusion time of Tau at saturation [4] [%]	increase of the normalized diffusion time of Tau at saturation [5] [%]
R5L-Tau, 3RS isoform (construct for TIRF microscopy), Alexa 647-labeled (from UniProt P10636-2 1-352) (natural protein)	0.68	0.41	1.04	10.4	11	0.5	0.7	18	–	–
tubulin (free, soluble), purified from bovine brain (from UniProt Q6B856 1-445) (complex)	–	–	–	–	–	–	–	–	50	50
WT-Tau, 3RS isoform (construct for TIRF microscopy), Alexa 647-labeled (from UniProt P10636-2 1-352) (natural protein)	1	0.4	1	7.12	7.55	0.6	0.7	43	–	–
